Source: the nanobody polyreactivity screen of Harvey et al. (2022)

Experiment: yeast display, Sf9 membrane polyspecificity reagent, FACS + sequencing; frameworks hold sequencing errors
Outline: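 Genes from sorted yeast were amplified by colony PCR, read by MiSeq 2 × 250 sequencing and filtered on CDR length. These cells carried a synthetic nanobody library in Saccharomyces cerevisiae BJ5465 and were sorted by FACS into low and high (top ~1%) gates on anti-HA and streptavidin fluorescence. Polyreactivity is labelled according to the gate of origin.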

Sequence | polyreactivity (PSR sort gate)
QVQLVESGGGLVQAGGSLRLSCAASGRTFSRYAMGWYRQAPWKERELVAAITSRGGNTYYADSVKGRFTISRDNAKNTVYLQMNSLIPEDTAVYYCNKVVRRGGGKNPDYDYWGQGTQVTVSS | high polyreactivity
QVQLVESGGGLVQAGGSLRLSSAASGNIFKSYTMGWYRQAPGKERELVAAITSGGRTNYGDSVKGRFTISRDNAKNTVYLQMNSLKPEDTAVYYCNAYKVFWVSIRYKFDYWGQGTQVTVSS | high polyreactivity
QVQLVESGGGLVQAGGSLRLSCAASGRIIRWYAMGWYRQAPGKERELVAAISGSGGSTYYADSVKGRFTISRDNAKNTVYLQMNSLKPEDTAVYYCAAAYYRDSDRRYNYWGQGTQVTVSS | high polyreactivity
QVQLVESGGGLVQAGGSLRLSCAASGRTLGAYAMGWYRQAPGKERELVAAIRWSGSSTYYADSVKGRFTISRDNAKNTVYLQMNSLKPEDTAVYYCAAYWSRVLYGMNYWGQGTQVTVSS | high polyreactivity
QVQLVESGGGLVQAGGSLRLSCAASGRIFVDYAMGWNRQAPGKERELVAAISWSGRTYYADSVKGRFTISRDNAKNTVYLQMNSLKPEDTAVYYCNAAYHYYGKYDYWGQGTQVTVSS | high polyreactivity
QVQLVESGGGLVQAGGSLRLSCAASGRIFKRYAMGWYRQAPGKERELVAAITRSGTRTYYADSVKGRFTISRDNAKNTVYLQMNSLKPEDTAVYYCAAALGWYSAFGYWGQGTLVTVSS | high polyreactivity
QVQIVESGGGLVQAGCSLRLSCAASGNIFRGYTMGWYRQAPGKEWELVATITWNGVSTFYADSVKGRFTISRDNAKNTGYLQMNSLKPEDTAVYYCAAYYPSHDYSGFGSDTYEYWGQGTQVTVSS | low polyreactivity
QVQLVESGGGLVQAGGSLRLSCAASGFNFDANPLGWYRQAAGKERELVAAISWSGGSTYYADSVKGRFTISRDYANNSVYLQMNTLKPEDTAVYYCAADILGYSYEYWGQGTQVTVSS | high polyreactivity
QVQLVESGGGLVQAGGSLRLNCAASGSIFTGNAMGWYRQAPGKERELVASITTSTDSTYYADSVKGRFTISRDNAKNTVYLQMNRLKTEDTAVYYCAAEYAVAWKYGLYFYFHFDYWGQGTQVTVSS | low polyreactivity
QVQLEESGGGLVQAGGSLRVSCAPSGRTFGWYTMGWYRQAPGKERELVAVISSTGGRTYYADSVKGRFTISRDNAKNTVYLQMNSLKPEDTAVYYCAAEYVSAKWESGYWGQGTQVTVSS | low polyreactivity
QVQLVESGGCLVQAGGSLRLSCAASGSIFLTYAMGWYIQAPGKERELVASSTGGGSTNYADSVKGRFTSSRDNAKNTVYLQRNSLKPEDTAVYYCAKKAIVSDQWDKYDYWGQGTQVTVSS | low polyreactivity
QVQLVESGGGLVQAGGSLRLSCAASGRTLRLYAMGWSRQAPGKERELVAAISSRGRTYYADSVKGRFTISRDNAKNTVYLQMNSLKPEDTAVYYCNTAQFLREDYWGQGTQVTVSS | high polyreactivity
QVQLVESGGGLVQAGGSLRLSCADSGSTFSYNAMGWYRQAPGKERELVATITYSGTSTHYADSVKGRFTISRDNAKNTVYLQMNSLKPEDTAVYYCNAYSKGWGLPDDYWGQGTLVTVSS | low polyreactivity
QVQLVESGGGLVQAGGSLRLSCAASGRTFAFYAMGWYRQAPGKERELVASISSSGDRTYYADSVKGRFTISRVNAKNTVYLQMNSLKPEDTAVYYCAARWRYTYYYWGQGTQVTVSS | high polyreactivity
QVQLVESGGGLVQAGGSLRLSCAASGFIFSYYAMGWYRQAPGKERELVATITSGGSTNYADSVKGRFTISRDNAKNTVYLQMNSLKPEVTAVNYCATRKYRVPRSYDWGQGTQVTVTS | high polyreactivity
QVQLVESGGGLVQAGGSLRLSCAASGFTFWKYAMGWYRQAPGKERELVAAISWSGGNTYYADSVKGRFTISRDNAKNTVYLQMNSLKPEDTAVYYCAAVYTPQNQFRYKYYYWGQGTQVTVSS | high polyreactivity
QVQLVESGGGLVQAGGSLRLSCAASGSIFGAYAMGWSRQAPGKERELVAAISGSGTSTYYADSVKGRFTISRDNAKNTVYLQMNSLKQEDTAVYYCAADGTYFYIYLGDRFDYWGQGTQVTVSS | low polyreactivity
QVHLVESGGGLVNAGGSLRLSCAASGRIFSGYAMGWYRQAPGKERELVAAITSVGSTNNADSVKGRFTISRDNAKNTVYLQMNSLKPEDTAVYYCAARGSYARGYDYWGQGTQVTVSS | high polyreactivity
QVQLEESGGGLVQAGGSLRLTCAATGRIYFYGMGRYRQAPGNERELVATITSVSNTYYADSVKGRFTKSRDNAKNTVYLVMNSLKPEETAVYYCAAVTRGNWVYYWGQRTQVTVSS | high polyreactivity
QVQLVESGGGLVQAGGSLRLSCAASGITFDEYAMGWYIQAPGKERELVASISAGSTYYADSVKGRFTISRDNAKNTVYLQMNSLKPEDTAVYYCAVVVDYDAYRYWGYDYWGQGTQVTVSS | high polyreactivity
QVQLVESGGGLVQAGGSLRLSCAASGFTFAAYAMGWYRQAPGKERELVAAISWSGGSTRYADCVKGRYTISRDNAKNTVYLQKNSLIPEDTAVYYCNAVGYRVGIYSSKGDYWGQGTQVTVSS | high polyreactivity
QVQLVESGGGLVQAGGSLRLSCAASGSIFQFYAMGWYRQAPGKERELVAVITTSGVSTYYADSVKGRFTISRDNAMNTVYLQMNSLKPEDTAVYFCAADDYYLAGDYWGQGTQVTVSS | low polyreactivity

Sequence | polyreactivity (PSR sort gate)
QVQLVESGGGLVQAGGSLRLSCAASGYIFRYNAMGWYRQAPGKEREFVASISQRGGSTYYADSVKGRFTISRDNAKNTVYLQMNSLKPEDTAVYYCAARLGYYSYEYNYWGQGTQVTVSS | high polyreactivity
QVQLVESGGGLVQAGGSLRLSCAASGRTFLYNTMGWYRQAPGKERELVAVISIDGGGTYADSVKGRFTISRDNAKNNVYLQMNSLKPEDTAVYDCAVDALCITYGYWGQGTQVTVSS | low polyreactivity
QVQLQESGGGLVQAGGSLRLSCAASGNISVTGFMGWYRKAPGKERELVASIGIGGTTYYADSVKGRFSISRDNAKNTVYLQMNSLKPEDTAVYYCAARYLYYAYSYWGQGTQVTVSS | low polyreactivity
QVQLVESGGGLVQAGGSLRLSCAASGRTFIKYALGSYRQAPGKERELVAAISRNGGSTNYADSVKGRFTISRDNAKNTVYLLMNSLKPEDPAVYYCAAVGTVSRTVGYNYWGQGSQVTVSS | high polyreactivity
QVQLVESGGGLVQAGGSLRLSCAASGSIFSYDAMGWYRLAPGKERELVAVINSGGRTNYADSVKGRFTISRDNAKNTVYLQMNRLKPEDTAVYYCAAQGYFVDRAGRYDRGDYWGQGTQVTVSS | high polyreactivity
QVQLVESGGGLVQAGGSLRLSCAASGSIYYFNAMGWYRQAPGKERELVASITSGGSTNYADSVKGRFTLSRDNAKNTVYLQMNSLNPEDTAVYYCNARFPYLSRWLVRGLASYDYWGQGTQVTVSS | low polyreactivity
QVQLVESGGGLVQAGGSLRLSCAASGRTFIYYAMGWNRQAPGKERELVAGITYSVGSTYYADSVKGRFTISRDNEKNTVYLQMNSLKPEDTAVYYCAADATFESDWGQGTQVTVSS | low polyreactivity
QVQLVESGGGLVQAGGSLRLSCAASGFILPIYAMGWYRQAPGKEREFVAAITWTGGSTYYADSVKGRFTISRDTAKNNVFLQIHSLKPEDTAVYYCAKRYYLRGYGRYYYWGQGTQVTVSS | high polyreactivity
QVQLVESGGGLVQAGGSLRLSCAASGFTFSRYTMGWYRQAPGKERELVAAISFSGVRTYYADSVKGRFTISRDNAKNSVYLQMNSLKPEDTAVYYCNRVSRTRGLNLYDYWGQGTQVTVSS | high polyreactivity
QVQLVESGGGLVQAGGSLRLSCAASGRTFVSNVMGWYRQAPGKERELVAAINWSGDSTYYADSVKGRFTISRDNAKNTVYLQMNSLKPEDTAVYYCARRNPLGGNEHDYWGQGTQVTVSS | low polyreactivity
QVQLVESGGGLVQAGGSLRLSCAASGSTFDYYAMGWYRQAPGKERELVAAITSTGRTYYADSVKGRFTISRDNAKNTVYLQMNSLKPEDTAVYYCAADLPWGPLFDYWGQGTQVTVSS | low polyreactivity
QVQVVESGGGLVQAGGSLGLSCAASGRTFRVYAMGWYRQAPGKERELVASITRGGGTYADSVKGRFTISRDNAKNTVYLQMNCLKPEDTAVYYCNARWQRSTGGRQRYDYWGLGTQVTVSS | high polyreactivity
QVQLVESGGGLVQAGGSLRLSCAASGSIFIYYAMGWTRQAPGKERELVATISSDDRTNYTDSVKGRFTISRDNAKNTVYLQMNSLKPEDTAVYYCAADRYWGGRDGPEYDYWGQGTQVTVSS | low polyreactivity
QVQLVESGGGLVQAGGSLRLSCAASGRTFPYYAMGWYRQAPGKERELVAVISSADSTNYADSVKGRFTISRDNAKNTVYLQMNSLKPEDTAVYYCAADAVYYGDDYWGQCTQVTVSS | low polyreactivity
QVQLVESGGGLVQAGGSLRLSCAASGSTFYFYTMVWYRQAPGKEREFVAAISRRGGSTYYADSVKGRFTISRDNAKNTVYLQMNSLKPEDTAVYYCAAYTSTSDNGDSWGQGTQVTVSS | high polyreactivity
QVHLVQSGGGLVQAGGSLRLSCAASGSILYFYAKGWYRQAPGKERELVAAISWTGGSTYYADSVKGRFTISRDNAKNTVYLQMNSLKPEDTAVYYCAAELWYEGYDYWGQGTQVTVSS | high polyreactivity
QVQLVESGGGLVQAGGSLRLSCAASGNTFYGYAMGWYRQAPGKERVLVATIDSGGSTNYADSVKGRFTISRDNAKNTVYFQMNSLKPEDTAVYYCAADGVWYYNDMDYWGQGTQVTVSS | low polyreactivity
QVQLVESGGGLVQAGGSLRLSCAASGSICGLYDMRWYRQAPGKERELVASITGGGSTYADSVKGRFTISRDNAKNTVYLQMNSLKPEDTAVYSFAAKPYSFYGYKYDYWGQGTQVTVSS | low polyreactivity
QVQLVESGGGLVQAGGSLRLSCAASGSTFDRYAMGWYRQAPGKERELVAAISWSGGSTYYADSVKGRFTISRDNAKNTVYLQMNSLKREDTAVYYCARRYARITPVYPPLNYWGQGTQVTVSS | high polyreactivity
QVQLVESGGGLVQAGGRLRLSCAASGITFRTNTMGWYRPAPGKERELVASISSGTRTNYADSVKGRFTISRDNAKNTVYLQLNSLKPVDTAVYYCAAGPPRTRYRNARFDYWGQGTQVTVSS | high polyreactivity
QVQLVESGGGLVQAGGSLRLSCAASGSIFWWNAMGGYRQAPGKERELVAAINWSTGRTYYADSVKGRFTISRDNAKNTVYLQMNSLKPEDTAVYYCAASFVGALGYDYWGQGTQVTVSS | low polyreactivity
